# Reference: PMC7644731
# pKd: −log10 of the molar value.
# Tests used:
# Test in all cases: double-filter binding
# [1] = system: Mini-Ph EH; conditions: apparent Kd, n=5; Filter binding: 60 mM KCl, 12 mM Hepes pH 7.9, 0.24 mM EDTA, 4% glycerol, 0.02 nM probe, 1 h at room temperature
# [2] = system: Mini-Ph-ML; conditions: apparent Kd, n=3; Filter binding: 60 mM KCl, 12 mM Hepes pH 7.9, 0.24 mM EDTA, 4% glycerol, 0.02 nM probe, 1 h at room temperature
# [3] = system: Mini-Ph; conditions: apparent Kd, n=10; Filter binding: 60 mM KCl, 12 mM Hepes pH 7.9, 0.24 mM EDTA, 4% glycerol, 0.02 nM probe, 1 h at room temperature
# [4] = system: Mini-PhΔSAM; conditions: apparent Kd, n=4; Filter binding: 60 mM KCl, 12 mM Hepes pH 7.9, 0.24 mM EDTA, 4% glycerol, 0.02 nM probe, 1 h at room temperature
substance,measurement,setting,value
150-bp DNA probe,pKd,[1],6.15
same,pKd,[2],6.72
same,pKd,[3],7.43
same,pKd,[4],6.00
